US20120213699A1 (BOARD OF TRUSTEES OF THE UNIVERSITY OF ILLINOIS, published 2012)

Target: T1, BSA (UniProt P02769 25-607)
T1 construct: Negative control coating; also called bovine serum albumin
Experiment: phage ELISA on coated plates, anti-M13 peroxidase
Experimental: Phage ELISA on ACE-coated plates. Purified phages after 1st round of selection were taken for analysis in ELISA. […] For that, 96 well plate was coated with human and rat ACEs as a positive controls, and bovine ACE and BSA (5 ug/ml) as a negative controls. Plates were blocked for 30 min with 2% non-fat dry milk, and phages diluted in the milk were applied to the plates. After 30 min incubation with shaking and another 1.5 hours without shaking, unbound phages were washed with PBS/0.05% Tween 20 and anti-M13 antibodies conjugated with peroxidase (Pharmacia Biotech) diluted 1/2000 dilution in the 2% non-fat dry milk were added. After intensive washing with PBS/0.05% Tween 20 plates were developed with 1-step 3,3′5,5′-Tetramethyl-benzidine (TBM) substrate for ELISA and read at OD620 or at OD450 after reaction was stopped with 3N HCl.
For the assay 96 well plates were coated with human and rat ACEs as positive controls and with bovine ACE and BSA (5 μg/ml) as negative controls. Plates were blocked for 30 min with 2% non-fat dry milk and the phages diluted in milk were applied to the plates. […] After Intensive washing with PBS/Tween 20 the plates were developed with 1-step TBM substrate for ELISA and read at 620 nm or 450 nm after the reaction was stopped with 3N HCl.

T1 sequence (P02769 25-607 limits assumed): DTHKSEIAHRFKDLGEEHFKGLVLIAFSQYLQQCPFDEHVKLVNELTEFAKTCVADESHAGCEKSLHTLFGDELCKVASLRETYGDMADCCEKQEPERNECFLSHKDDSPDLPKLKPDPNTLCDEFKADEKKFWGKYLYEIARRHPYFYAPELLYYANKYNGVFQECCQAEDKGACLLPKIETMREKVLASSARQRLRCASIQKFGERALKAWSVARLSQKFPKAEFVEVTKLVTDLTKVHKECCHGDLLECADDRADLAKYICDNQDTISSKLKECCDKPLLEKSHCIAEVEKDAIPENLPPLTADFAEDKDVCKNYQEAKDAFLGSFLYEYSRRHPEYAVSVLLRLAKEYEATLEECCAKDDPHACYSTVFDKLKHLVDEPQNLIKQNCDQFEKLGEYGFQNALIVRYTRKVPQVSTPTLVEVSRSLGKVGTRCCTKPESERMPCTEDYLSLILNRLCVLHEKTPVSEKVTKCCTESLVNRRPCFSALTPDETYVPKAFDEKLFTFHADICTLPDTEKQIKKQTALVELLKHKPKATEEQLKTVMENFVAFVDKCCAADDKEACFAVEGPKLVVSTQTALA

B1: scFv 9B9 expressed on the phage surface (phages with the λ fragment) (scFv)
scFv: QVQLKESGPGLVAPSQSLSITCTVSGFSLTTYGVHWVRQPPGKGLEWLGVIWGGGNTNYNSALMSRLNITKDNSKRQVFLKMNSLQADDTGMYYCARGWDSWGQGTTLTVSSAKTTPPKLEEGEFSEARVQAVVTQESALTTSPGETVTLTCRSSTGAVTTNNYANWVQENPDHLFTGLIDGTNTRSPGVPARFSGSLIGDKAALTITGAQTEDEAIYFCALWYSNHWVFGGGTKLTVLGQ
notes: also called scFv 9B9 phages; 9B9 scFv phages; not shown: phage coat protein fusion partner from phagemid pSEX 81
binding result: no binding (tested: 5 µg/ml (coating))
